Measured values taken from article PMC8639466.

How the values were obtained:
[1] = molecular target: hSSRP1-PH2 (Leu101-Thr195) (human); assay: SEC; molecular weight calibration of the single protein in solution
hSSRP1-HMG520-616 = hSSRP1-HMG520-616 (Homo sapiens, UniProt Q08945 520-616); assay: EMSA; EMSA: 5 uM DNA, 137 mM NaCl, 2.7 mM KCl, 10 mM Na2HPO4, 2 mM KH2PO4 pH 7.4, 30 min on ice, 12% native PAGE; single-molecule: 10 mM Tris, 20 mM EDTA, 25 mM KCl; conditions: protein: recombinant; tags: GST or His-SUMO fusion vector; GST cleaved; label: 5'-FAM on strand 1; blunt
hSSRP1-HMG546-616 = hSSRP1-HMG546-616 (Homo sapiens, UniProt Q08945 546-616); assay: as above; conditions: protein: recombinant; tags: GST or His-SUMO fusion vector; GST cleaved; label: 5'-FAM on strand 1; blunt
Sequence of hSSRP1-HMG546-616 (Q08945 546-616): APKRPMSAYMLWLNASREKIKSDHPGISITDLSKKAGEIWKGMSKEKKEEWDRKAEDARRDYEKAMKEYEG

Sequence of hSSRP1-HMG520-616 (Q08945 520-616): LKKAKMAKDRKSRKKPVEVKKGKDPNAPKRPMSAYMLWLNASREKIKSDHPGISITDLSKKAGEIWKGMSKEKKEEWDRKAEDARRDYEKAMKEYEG

stoichiometry N [1] | Molecule | binding result (hSSRP1-HMG520-616) | binding result (hSSRP1-HMG546-616)
4 | hSSRP1-PH2 (Leu101-Thr195) (domain or fragment) | – | –
– | 15 bp FAM GT-rich dsDNA (dsDNA) DNA 1: GGGGTGATTGTTCAG DNA 2: CTGAACAATCACCCC | binds | no binding
